The values below come from US20120316071A1 (published 2012).

In assay [1] the target is T1, rHuman Erythropoietin R/Fc Chimera, CF (R&D Systems Cat#963-ER) (human, UniProt P19235 25-250).
T1 construct: Bought recombinant protein; also called EPO R/Fc; Epo R; Fc part of the bought chimera not given
T1 sequence (looked up): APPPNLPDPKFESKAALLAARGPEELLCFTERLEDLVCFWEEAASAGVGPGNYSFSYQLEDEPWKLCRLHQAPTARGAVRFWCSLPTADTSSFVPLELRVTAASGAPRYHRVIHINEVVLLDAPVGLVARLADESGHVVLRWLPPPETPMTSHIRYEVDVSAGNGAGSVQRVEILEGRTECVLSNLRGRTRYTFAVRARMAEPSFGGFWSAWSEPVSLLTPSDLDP
Put plainly: Multispot ECL (MSD), antigen spotted on plate, Fab 0.0625 uM; blank spot 1738.

Assay [2] addresses T2, rHuman EGF R/Fc Chimera, CF (R&D Systems Cat#344-ER) (human, UniProt P00533 25-645).
T2 construct: Bought recombinant protein; also called epidermal growth factor receptor (EGF R); Fc part of the bought chimera not given
The assay is described as above.

The target of assay [3] is T3, rHuman IGF-1 sR, CF (R&D Systems Cat#391-GR) (human, UniProt P08069 31-932).
T3 construct: Bought recombinant soluble receptor; also called insulin-like growth factor-1 soluble receptor
The description is as above.

Assay [4] has as its target T1, rHuman Erythropoietin R/Fc Chimera, CF …. Kind of assay: Multispot ECL (MSD), antigen spotted on plate, Fab 0.01563 uM; blank spot 906.
Assay [5] deals with T2, rHuman EGF R/Fc Chimera, CF (R&D …). The assay is described as above.
Assay [6] concerns the target T3, rHuman IGF-1 sR, CF (R&D Systems …). Described as above.
For assay [7], the target named is T1, rHuman Erythropoietin R/Fc Chimera, CF …. Kind of assay: Multispot ECL (MSD), antigen spotted on plate, Fab 0.00391 uM; blank spot 576.
Assay [8] addresses T2, rHuman EGF R/Fc Chimera, CF (R&D …). Described as above.
In assay [9] the target is T3, rHuman IGF-1 sR, CF (R&D Systems …). The description is as above.
Assay [10] addresses T1, rHuman Erythropoietin R/Fc Chimera, CF …. Kind of assay: Multispot ECL (MSD), antigen spotted on plate, Fab 0.25 uM; blank spot 6344.
Assay [11] addresses T2, rHuman EGF R/Fc Chimera, CF (R&D …). The assay is described as above.
Assay [12] addresses T3, rHuman IGF-1 sR, CF (R&D Systems …). The description is as above.
Assay [13] deals with T4, rHuman P-Cadherin/Fc Chimera, CF (R&D Systems Cat#861-PC) (human, UniProt P22223 108-654).
T4 construct: Bought recombinant protein; Fc part of the bought chimera not given
Kind of assay: ECL multispot (MSD) assay, antigen spotted on plate, 20 nM Fab.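 Note: purified Fab bound to plate-spotted antigen for 1 h at 20 °C, labelled detection antibody added, ratio of antigen ECL signal to same-well blank, ratio ≥4 counted as binder.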

In assay [14] the target is T5, Recombinant Human DLL4 (R&D Systems Cat#1506-D4/CF) (human, UniProt Q9NR61 27-524).
T5 construct: Bought recombinant protein; also called delta-like protein 4; rHuman DLL4
The description is as above.

The target in assay [15] is T6, rHuman Notch-1/Fc Chimera, CF (R&D Systems Cat#3647-TK) (human, UniProt P46531 19-526).
T6 construct: Bought recombinant protein; Fc part of the bought chimera not given
Described as above.

Assay [16] concerns the target T7, rHuman IGF-1 sR, CF (R&D Systems Cat#391-GR) (human, UniProt P08069 31-932).
T7 construct: Bought soluble receptor; also called insulin-like growth factor-1 soluble receptor
The description is as above.

Assay [17] deals with T8, rHuman CD44/Fc Chimera, CF (R&D Systems Cat#3660-CD) (human, UniProt P16070 21-220).
T8 construct: Bought recombinant protein; Fc part of the bought chimera not given
The assay is described as above.

Assay [18] deals with T9, rHuman EGF R/Fc Chimera, CF (R&D Systems Cat#344-ER) (human, UniProt P00533 25-645).
T9 construct: Bought recombinant protein; also called epidermal growth factor receptor; Fc part of the bought chimera not given
The description is as above.

For assay [19], the target named is T10, rHuman Erythropoietin R/Fc Chimera, CF (R&D Systems Cat#963-ER) (human, UniProt P19235 25-250).
T10 construct: Bought recombinant protein; also called EPO R; EPO R/Fc; Fc part of the bought chimera not given
T10 sequence (looked up): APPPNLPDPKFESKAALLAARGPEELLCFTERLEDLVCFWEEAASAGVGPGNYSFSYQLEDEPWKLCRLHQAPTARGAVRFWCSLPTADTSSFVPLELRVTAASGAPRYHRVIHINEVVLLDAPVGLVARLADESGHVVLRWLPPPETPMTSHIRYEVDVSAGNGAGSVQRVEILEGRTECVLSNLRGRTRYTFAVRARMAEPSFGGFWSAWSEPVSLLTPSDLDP
The assay is described as above.

In assay [20] the target is T11, rHuman ErbB2/Fc Chimera, CF (R&D Systems Cat#1129-ER) (human, UniProt P04626 23-652).
T11 construct: Bought recombinant protein; also called human epidermal growth factor 2 receptor; Fc part of the bought chimera not given
The description is as above.

Assay [21] addresses T12, rHuman HGF R/c-MET/Fc Chimera, CF (R&D Systems Cat#358-MT/CF) (human, UniProt P08581 25-932).
T12 construct: Bought recombinant protein; also called HGF R/Fc; hepatocyte growth factor receptor; Fc part of the bought chimera not given
The description is as above.

T12 sequence (P08581 25-932, change not shown): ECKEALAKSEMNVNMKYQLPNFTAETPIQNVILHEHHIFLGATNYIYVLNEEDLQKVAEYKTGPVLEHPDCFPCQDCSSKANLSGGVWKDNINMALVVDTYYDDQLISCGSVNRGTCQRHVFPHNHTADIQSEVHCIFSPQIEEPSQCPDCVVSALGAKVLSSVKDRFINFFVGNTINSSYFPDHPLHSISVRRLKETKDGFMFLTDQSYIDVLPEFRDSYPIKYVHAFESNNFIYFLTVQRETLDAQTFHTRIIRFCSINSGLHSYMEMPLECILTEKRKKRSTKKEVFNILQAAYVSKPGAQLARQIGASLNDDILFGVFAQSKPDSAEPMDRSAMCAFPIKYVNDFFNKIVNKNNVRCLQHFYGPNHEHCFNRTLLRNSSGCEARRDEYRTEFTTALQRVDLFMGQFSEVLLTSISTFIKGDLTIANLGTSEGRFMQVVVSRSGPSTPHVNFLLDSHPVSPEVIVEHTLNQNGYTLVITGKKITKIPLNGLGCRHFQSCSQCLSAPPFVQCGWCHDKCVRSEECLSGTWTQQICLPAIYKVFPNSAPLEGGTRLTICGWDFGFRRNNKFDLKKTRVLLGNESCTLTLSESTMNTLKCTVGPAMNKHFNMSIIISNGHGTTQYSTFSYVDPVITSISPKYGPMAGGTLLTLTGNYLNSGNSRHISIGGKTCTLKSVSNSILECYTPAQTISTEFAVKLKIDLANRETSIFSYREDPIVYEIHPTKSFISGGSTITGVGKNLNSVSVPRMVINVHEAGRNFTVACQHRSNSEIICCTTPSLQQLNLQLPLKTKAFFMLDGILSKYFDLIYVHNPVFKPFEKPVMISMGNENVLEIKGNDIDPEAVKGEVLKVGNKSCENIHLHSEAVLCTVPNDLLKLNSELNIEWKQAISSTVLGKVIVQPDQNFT

B1: Fab VH1-46_IGHD2-15*01_IGHJ2*01 & L2_IGKJ1*01 (Fab, V domains shown)
VH: QVQLVQSGAEVKKPGASVKVSCKASGYTFTSYYMHWVRQAPGQGLEWMGIINPSGGSTSYAQKFQGRVTMTRDTSTSTVYMELSSLRSEDTAVYYCAREGYCSGGSCYSYWYFDLWGRGTLVTVSS
VL: not shown
notes: Germline library Fab made in E. coli; VH was cloned into Plasmid A (heavy chain constant region CH1, His6 and Flag tags) and the kappa VL into Plasmid C (kappa CL)
With B1, the ECL signal worked out at 21100 in assay [1]; 94800 in [2]; 3150 in assay [3]; 11300 in [4]; 70800 in [5]; 1740 in [6]. Further, the ECL signal came to 5020 in [7]; 35900 in [8]; 822 in assay [9]; 49200 in assay [10]; 117000 in assay [11]; 11000 in assay [12].

B2: Fab VH3-23_IGHD2-21*01>3_IGHJ6*01 H100E/S108P/Y113G Y59A & V2-13_IGLJ2*01 (Fab, V domains shown)
VH: EVQLLESGGGLVQPGGSLRLSCAASGFTFSSYAMSWVRQAPGKGLEWVSSISGSGGSTAYADSVKGRFTISRDNSKNTLYLQMNSLRAEDTAVYYCAKEEIVVVIAIPYYYYGYGMDVWGQGTLVTVSS
VL: SSELTQDPAVSVALGQTVRITCQGDSLRSYYASWYQQKPGQAPVLVIYGKNNRPSGIPDRFSGSSSGNTASLTITGAQAEDEADYYCNSRDSSGNHLVVFGGGTKLTVL
notes: Tested as a Fab made in E. coli; also called EPG Y59A
As to B2, the “ECL signal/blank ratio (read-out not given)” value in assay [13] was 2.4; in [14] it was 2.8; in [15], 2.1; in [16], 1.3; in [17], 1.4; in assay [18] it was 1.4. Besides, the results for the “ECL signal/blank ratio (read-out not given)” value in assay [19], in assay [20] and in assay [21] were 2.5, 1.6 and 3.3, respectively.
